# Test results as given in paper PMC6226536.
# Assays:
# Assay in all cases: Y2H (α-galactosidase activity)
# SlTRM17/20a fragment = conditions: read off a plot
# SlTRM25 fragment = conditions: parent: est. 4.2; read off a plot
# SlTRM5 fragment = conditions: read off a plot
# SlOFP20^D265R = conditions: read off a plot
# OVATE E299V = conditions: read off a plot
# SlOFP20 D284V = conditions: read off a plot
# OVATE^D280R = conditions: read off a plot
# SlOFP20 D265V = conditions: read off a plot
# OVATE = conditions: read off a plot
# SlOFP20 = conditions: read off a plot
# OVATE D280V = conditions: read off a plot
substance,measurement,setting,value
SlOFP20 D265V,response (milliunits/(ml×cell)),SlTRM17/20a fragment; parent: est. 7.9,6
same,response (milliunits/(ml×cell)),SlTRM25 fragment,0.1
same,response (milliunits/(ml×cell)),SlTRM5 fragment; parent: est. 5.2,0.1
m3; m2 SlTRM5:R374V; SlOFP20:D265R,response (milliunits/(ml×cell)),SlOFP20^D265R; parent: est. 5.2,0.1
OVATE D280V,response (milliunits/(ml×cell)),SlTRM17/20a fragment; parent: est. 7.2,1.6
same,response (milliunits/(ml×cell)),SlTRM25 fragment,0.1
same,response (milliunits/(ml×cell)),SlTRM5 fragment; parent: est. 7.1,0.1
OVATE D280R,response (milliunits/(ml×cell)),SlTRM17/20a fragment; parent: est. 7.2,0.1
same,response (milliunits/(ml×cell)),SlTRM25 fragment,0.1
same,response (milliunits/(ml×cell)),SlTRM5 fragment; parent: est. 7.1,0.1
m3; m1 SlTRM5:R374V; OVATE:E299V,response (milliunits/(ml×cell)),OVATE E299V; parent: est. 7.1,3.1
m3; m2 SlTRM5:R374V; SlOFP20:D284V,response (milliunits/(ml×cell)),SlOFP20 D284V; parent: est. 5.2,2.4
m5; m1 SlTRM25:K327V; OVATE:D280R,response (milliunits/(ml×cell)),OVATE^D280R; parent: est. 4.2,0.1
m4; m1 SlTRM17/20a:K318V; OVATE:D280R,response (milliunits/(ml×cell)),OVATE^D280R; parent: est. 7.2,0.25
m3; m2 SlTRM5:R374V; SlOFP20:D265V,response (milliunits/(ml×cell)),SlOFP20 D265V; parent: est. 5.2,0.1
SlTRM25 fragment K327V,response (milliunits/(ml×cell)),OVATE; parent: est. 4.2,2.1
same,response (milliunits/(ml×cell)),SlOFP20; parent: est. 4.2,1.9
SlTRM17/20a fragment K318V,response (milliunits/(ml×cell)),OVATE; parent: est. 7.2,4.2
same,response (milliunits/(ml×cell)),SlOFP20; parent: est. 7.9,4.5
m4; m1 SlTRM17/20a:K318V; OVATE:E299V,response (milliunits/(ml×cell)),OVATE E299V; parent: est. 7.2,4.1
m5; m2 SlTRM25:K327V; SlOFP20:D265R,response (milliunits/(ml×cell)),SlOFP20^D265R; parent: est. 4.2,0.1
m3; m1 SlTRM5:R374V; OVATE:D280R,response (milliunits/(ml×cell)),OVATE^D280R; parent: est. 7.1,0.1
m4; m1 SlTRM17/20a:K318V; OVATE:D280V,response (milliunits/(ml×cell)),OVATE D280V; parent: est. 7.2,0.9
SlOFP20 D284V,response (milliunits/(ml×cell)),SlTRM17/20a fragment; parent: est. 7.9,7.2
same,response (milliunits/(ml×cell)),SlTRM25 fragment,0.25
same,response (milliunits/(ml×cell)),SlTRM5 fragment; parent: est. 5.2,2.5
m5; m1 SlTRM25:K327V; OVATE:D280V,response (milliunits/(ml×cell)),OVATE D280V; parent: est. 4.2,0.1
SlOFP20 D265R,response (milliunits/(ml×cell)),SlTRM17/20a fragment; parent: est. 7.9,5.3
same,response (milliunits/(ml×cell)),SlTRM25 fragment,0.1
same,response (milliunits/(ml×cell)),SlTRM5 fragment; parent: est. 5.2,0.1
m4; m2 SlTRM17/20a:K318V; SlOFP20:D265V,response (milliunits/(ml×cell)),SlOFP20 D265V; parent: est. 7.9,3.6
m3; m1 SlTRM5:R374V; OVATE:D280V,response (milliunits/(ml×cell)),OVATE D280V; parent: est. 7.1,0.1
m4; m2 SlTRM17/20a:K318V; SlOFP20:D265R,response (milliunits/(ml×cell)),SlOFP20^D265R; parent: est. 7.9,3
SlTRM5 fragment R374V,response (milliunits/(ml×cell)),OVATE; parent: est. 7.1,4.7
same,response (milliunits/(ml×cell)),SlOFP20; parent: est. 5.2,3.4
m5; m2 SlTRM25:K327V; SlOFP20:D284V,response (milliunits/(ml×cell)),SlOFP20 D284V; parent: est. 4.2,0.25
m5; m2 SlTRM25:K327V; SlOFP20:D265V,response (milliunits/(ml×cell)),SlOFP20 D265V; parent: est. 4.2,0.1
m5; m1 SlTRM25:K327V; OVATE:E299V,response (milliunits/(ml×cell)),OVATE E299V; parent: est. 4.2,2.3
m4; m2 SlTRM17/20a:K318V; SlOFP20:D284V,response (milliunits/(ml×cell)),SlOFP20 D284V; parent: est. 7.9,4.8
OVATE E299V,response (milliunits/(ml×cell)),SlTRM17/20a fragment; parent: est. 7.2,5
same,response (milliunits/(ml×cell)),SlTRM25 fragment,2.5
same,response (milliunits/(ml×cell)),SlTRM5 fragment; parent: est. 7.1,3.1
